Reference: the supplement of paper PMC7877785
± gives the uncertainty stated by the source.

Assay: self-splicing fitness, log relative to wild type (ln ratio); higher = more splicing; Tetrahymena group I intron in knt gene, E. coli kanamycin selection, DiMSum; sequences stand for … in CUCUCU…GGAGGGAAAAGUUAUCAGGCAUGCACCUGGUAGCUAGUCUUUAAACCAAUAGAUUGCAUCGGUUUAAAAGGCAAGACCGUCAAAUUGCGGGAAAGGGGUCAACAGCCGUUCAGUACCAAGUCUCAGGGGAAACUUUGAGAUGGCCUUGCAAAGGGUAUGGUAAUAAGCUGACGGACAUGGUCCUAACCACGCAGCCAAGUCCUAAGUCAACAGAUCUUCUGUUGAUAUGGAUGCAGUUCACAGACUAAAUGUCGGUCGGGGAAGAUGUAUUCUUCUCAUAAGAUAUAGUCGGACCUCUCCUUAAUGGGAGCUAGCGGAUGAAGUGAUGCAACACUGGAGCCGCUGGGAACUAAUUUGUAUGCGAAAGUAUAUUGAUUAGUUUUGGAGUACUCGUGGUCG
Outline: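 Six replicate transformations of E. coli BL21(DE3) with a pET-22b(+) library were grown overnight at 37°C or 30°C. The library randomised all eight P1ex-region intron nucleotides, the intron lying in the knt kanamycin-resistance gene, and plates were LB agar with or without 25 μg/mL kanamycin plus 100 μg/mL carbenicillin, 50 μM IPTG and 0.2% rhamnose. Pooled colonies were amplicon-sequenced on an Illumina HiSeq 2500, and fitness is the DiMSum error-weighted combination of wild-type-normalised replicate fold changes, kanamycin versus none.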

## AGACAGCAAUAUUACGGGAG
30 °C
  self-splicing fitness (ln): -3.93 ± 0.16
37 °C
  self-splicing fitness (ln): -2.89 ± 0.17

## CUGGAGCAAUAUUACGCUCG
30 °C
  self-splicing fitness (ln): -1.13 ± 0.18

## GCUGAGCAAUAUUACGCAGG
30 °C
  self-splicing fitness (ln): -1.66 ± 0.13
37 °C
  self-splicing fitness (ln): -1.56 ± 0.15

## UUUCAGCAAUAUUACGUGGG
30 °C
  self-splicing fitness (ln): -2.4 ± 0.14
37 °C
  self-splicing fitness (ln): -1.95 ± 0.12

## CUAAAGCAAUAUUACGGGGU
30 °C
  self-splicing fitness (ln): -3.19 ± 0.14
37 °C
  self-splicing fitness (ln): -2.94 ± 0.17

## AGAUAGCAAUAUUACGGCGG
30 °C
  self-splicing fitness (ln): -0.92 ± 0.12
37 °C
  self-splicing fitness (ln): -1.04 ± 0.15

## UUCUAGCAAUAUUACGUGAU
30 °C
  self-splicing fitness (ln): -1.89 ± 0.18
37 °C
  self-splicing fitness (ln): -1.34 ± 0.21

## UUUAAGCAAUAUUACGGUAC
30 °C
  self-splicing fitness (ln): -2.22 ± 0.28

## UUAAAGCAAUAUUACGAUUA
30 °C
  self-splicing fitness (ln): 0.6 ± 0.089
37 °C
  self-splicing fitness (ln): 0.448 ± 0.097

## UCACAGCAAUAUUACGAAGG
30 °C
  self-splicing fitness (ln): -1.55 ± 0.097
37 °C
  self-splicing fitness (ln): -0.755 ± 0.12

## ACCAAGCAAUAUUACGCGCC
30 °C
  self-splicing fitness (ln): -1.35 ± 0.11
37 °C
  self-splicing fitness (ln): 0.198 ± 0.14

## GAUAAGCAAUAUUACGGCUA
30 °C
  self-splicing fitness (ln): -0.974 ± 0.12
37 °C
  self-splicing fitness (ln): 0.143 ± 0.15

## UACUAGCAAUAUUACGUACC
30 °C
  self-splicing fitness (ln): -2.24 ± 0.17
37 °C
  self-splicing fitness (ln): -1.72 ± 0.23

## CGGAAGCAAUAUUACGGGGC
30 °C
  self-splicing fitness (ln): -2.49 ± 0.19
37 °C
  self-splicing fitness (ln): -2.71 ± 0.26

## GAAGAGCAAUAUUACGAGUU
30 °C
  self-splicing fitness (ln): -2.61 ± 0.16
37 °C
  self-splicing fitness (ln): -2.03 ± 0.21

## ACGUAGCAAUAUUACGGAGG
30 °C
  self-splicing fitness (ln): -4.05 ± 0.28
37 °C
  self-splicing fitness (ln): -2.53 ± 0.19

## CUGCAGCAAUAUUACGCGAU
30 °C
  self-splicing fitness (ln): -1.12 ± 0.09
37 °C
  self-splicing fitness (ln): -0.167 ± 0.12

## AGGGAGCAAUAUUACGUUAG
30 °C
  self-splicing fitness (ln): -3.02 ± 0.2
37 °C
  self-splicing fitness (ln): -3.66 ± 0.37

## CACGAGCAAUAUUACGAUGG
30 °C
  self-splicing fitness (ln): -1.81 ± 0.096
37 °C
  self-splicing fitness (ln): -1.45 ± 0.14

## UGUGAGCAAUAUUACGCCAA
30 °C
  self-splicing fitness (ln): -1.67 ± 0.5
37 °C
  self-splicing fitness (ln): -0.355 ± 0.39

## CUCCAGCAAUAUUACGCACU
30 °C
  self-splicing fitness (ln): -2.56 ± 0.14
37 °C
  self-splicing fitness (ln): -3.09 ± 0.32

## AAUGAGCAAUAUUACGCGAC
37 °C
  self-splicing fitness (ln): -1.67 ± 0.48

## GUCUAGCAAUAUUACGAUAA
30 °C
  self-splicing fitness (ln): -1.09 ± 0.22
37 °C
  self-splicing fitness (ln): 0.55 ± 0.23

## GCCGAGCAAUAUUACGGGGU
30 °C
  self-splicing fitness (ln): -4.35 ± 0.33
37 °C
  self-splicing fitness (ln): -2.56 ± 0.2

## GCACAGCAAUAUUACGCGCU
30 °C
  self-splicing fitness (ln): -2.39 ± 0.22
37 °C
  self-splicing fitness (ln): -1.1 ± 0.19

## AAGGAGCAAUAUUACGCCCC
30 °C
  self-splicing fitness (ln): -1.19 ± 0.47
37 °C
  self-splicing fitness (ln): -1.42 ± 0.46

## CUCUAGCAAUAUUACGGUAC
30 °C
  self-splicing fitness (ln): -2.88 ± 0.39
37 °C
  self-splicing fitness (ln): -4.12 ± 0.46

## AUUAAGCAAUAUUACGAAAC
30 °C
  self-splicing fitness (ln): -3.37 ± 0.16
37 °C
  self-splicing fitness (ln): -1.6 ± 0.15

## UCAGAGCAAUAUUACGAAUC
30 °C
  self-splicing fitness (ln): -2.45 ± 0.42

## CACUAGCAAUAUUACGCAUG
30 °C
  self-splicing fitness (ln): -1.95 ± 0.13
37 °C
  self-splicing fitness (ln): -1.75 ± 0.21

## AGUGAGCAAUAUUACGAGUU
30 °C
  self-splicing fitness (ln): -2.21 ± 0.18
37 °C
  self-splicing fitness (ln): -1.28 ± 0.18

## UCCCAGCAAUAUUACGACGG
30 °C
  self-splicing fitness (ln): -2.95 ± 0.15
37 °C
  self-splicing fitness (ln): -2.15 ± 0.14

## GUUGAGCAAUAUUACGGUAA
30 °C
  self-splicing fitness (ln): -2.51 ± 0.27
37 °C
  self-splicing fitness (ln): -2.49 ± 0.35

## UCAAAGCAAUAUUACGUUUA
30 °C
  self-splicing fitness (ln): -2.71 ± 0.16
37 °C
  self-splicing fitness (ln): -2.51 ± 0.18

## GCGAAGCAAUAUUACGUGCC
30 °C
  self-splicing fitness (ln): -3.73 ± 0.18
37 °C
  self-splicing fitness (ln): -3 ± 0.23

## GAGGAGCAAUAUUACGUUGU
37 °C
  self-splicing fitness (ln): -1.87 ± 0.33

## GGCAAGCAAUAUUACGCUAC
30 °C
  self-splicing fitness (ln): -3.33 ± 0.27
37 °C
  self-splicing fitness (ln): -2.79 ± 0.23

## GCCCAGCAAUAUUACGAUUG
30 °C
  self-splicing fitness (ln): -2.63 ± 0.14
37 °C
  self-splicing fitness (ln): -2.57 ± 0.22

## AACCAGCAAUAUUACGGCUA
30 °C
  self-splicing fitness (ln): -0.197 ± 0.048
37 °C
  self-splicing fitness (ln): 0.0992 ± 0.063
